Publication PMC6317713

What was measured:
Experiment in all cases: two-hybrid
[1] = target: PRO0 (DIG10.3 Y34F, Y99F, Y101F), progesterone ligand-binding domain
[2] = target: DIG10.3 monomer (DIG0), computationally designed digoxigenin-binding protein
[3] = target: DIG1b (DIG10.3 E83R), charge swap design
[4] = target: DIG2b (DIG10.3 I102A), knob-in-hole design

## DIG1 (DIG10.3 E83V) (designed binder)
[1]
  fold luciferase activity with both ligands over either ligand alone: 20 fold
[2]
  fold activation of the luciferase reporter with digoxigenin: 400 fold

## DIG1a (DIG10.3 R116E), charge swap design (designed binder)
[3]
  fold increase in reporter activation with digoxigenin: > 500 fold

## DIG2a (DIG10.3 I102M, V104F), knob-in-hole design (designed binder)
[4]
  fold increase in reporter activation with digoxigenin: > 500 fold

## DIG10.3 monomer (DIG0), computationally designed digoxigenin-binding protein (designed binder)
[2]
  fold increase in luciferase activity with 50 uM digoxigenin: 20 fold

## PRO0 (DIG10.3 Y34F, Y99F, Y101F), progesterone ligand-binding domain (designed binder)
[1]
  fold increase in reporter activity with 1 uM progesterone: 200 fold
